The NTF2 design screens of Basanta et al. (2020)

Experiment: protease stability score; higher = more stable; yeast display proteolysis, trypsin and chymotrypsin;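 note: relative to predicted unfolded state with 0 unfolded-like and 1 meaning tenfold more protease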

| Sequence | protease stability score |
| --- | --- |
| AEQHEQAREFLRNWLEAYHTGDEDLLRSMFDPNVRLHVDGRVIIGREDIIRERLHFLENHGITFHFRIQDMSVQGEKVIFDVEFHYRYNGQDYHKKVWLFVEKINGRWFMTQININ | 2.19 |
| AREEEIVEEMARLMRHLWTTGDEEKIDEMLDPDVRVEWRVNGVHLENHGRDQFIRILRRFSDEWRLRSLHDETFRIQGDKVEVDSRFDVQVNGQRDILETEFHLVVVDGRIRHVEIIIK | 1.6 |
| DDALRHADTLLDQFEHHMETGDEESMTRLADPDTRTDINGQHFHGRDWWREFMRRVDHHHIRSVDYHSVRLFNGQIHFDVEIDVEIVIGDKRYRTRYHFEVVIVKIDGRWLLHRIKTE | 0.861 |
| DDDAIKRFHEQVDNEQHNNEEEQEKNVDPNATVNVGDKTYHGREKWREVVKRENEEMRVKYQHVTFRRHPGRVIVRFRIVNDHNGKPTETDVNANYQMHNGRIRQVNRRTDG | 0.225 |
| DDDDRKNHEIAKWIWELIETGDEDILQHLADPDYRLVLDFDGVHIHRHGMTRIYHTLERVYREFGADHIHIRSITNINGVNIIDGEVQVNGKHYRLVLIFIVVNGRIKEIRVKKR | 1.54 |
| DDDEEIIERALRLWEKFEQTGDEKRLDEMIDPNVRVNYNGVIHHGRDHLRHFFSRFDHFKRLHIEDSRFFNGKIIIHTRLEGRIGDKERTVNVIIIALKVDGKWFLESWSMS | 0.618 |
| DDDEHDTEKLLTFYSHAERTGDEELLRHLFDPDVKLYIGDKLFIGWRLFKERFRRWVEELGINHIEVHLHRYRIQGDKIDMDTRLELRYDGRTEHVESHVIVRKVDGRWNFERMHFN | 0.745 |
| DDDEHEAKEAIHLWLELFMTGDEESHNRYMDPHVKTKFHFENHHEEYHGREKAIELMRMLGIKHVELRDVSTRVINGRVHIDMEIIVHFDGQEVRVIVLVIVIKINGQWILHEVVIIIK | 0.933 |
| DDDEHNAHHAVEIWIHLLRTGDEHMLERMFDPNTRIRFNGREFHGREEAHRFIEELLRTLGVDHSHITIHDMKIQGNKVHVDTRLTLIVGDKTYSRNTHLVILKVNGRWWLHSMHFN | 1.41 |
| DDDEKDLEKLIREVMEIIWTGDEDTFRHFMDPNTRLFIDGKIIVGMEEIMRRWHELLRKFGVDKIEVRLDDFKIIGNKIELHFEIMIGDKRFKTQTIFEKIDGRWILHSRFIH | 2.01 |
| DDDERALEEAIRIIKEVFKTGDERLHEELFDPNYLLIINGVFYHGREVMRNFHRHWRIRHVEFRRTRVINGRIEMDVHIITDINGQEIRHDSHIYAHKIDGRWIFRSVEHH | 1.63 |
| DDDERDMDLALELIIRTIRTGDWELQSRLIDPHARLHIDGRDLHGMEEYVTILVEHWRRIKGVKVSITLHDRDVFDGVLHLDTEVELDFNGVRLHMKTEIISLKYNGRWFIKEIRVR | 0.654 |
| DDDHKVAEKMNDTFLRLFLTGDFERLWELADPHVRILFNGVEFHGREQMSTVIEHHLRQMRVHDVTIEHITWQGDKLHVHSILRTRVGDKKVDDHIEVNILKVDGKWIVKEVKIL | 2.01 |
| DDDHLRKVEDFMRAQLEGDPDRLKQLADPNVRMNVGEKKVHGMQDIATEQASTYKTARYEIKSLDSKTEGDKVVITMRVQADNNGQPHDETFHLKARLENGKIVEQSKENDG | -0.531 |
| DDDKKRAEELLRLWHEFFETGDEHDMNRNLDPHAKVDVNGKEIHGREFVSEWLVRKVKFFKGIKLEHKRSHFVNGRAHLHTEINFDGVEFEVIIHSDKINGRWLVHEIIIK | 1.17 |
| DDDKREMEEIARRWVESLETGDEDTLTKLADPNTKLELLIDGRENNLIGMRYWLEFLERFKNVTIKFKRMRVQGDKADIETEVNINGQRFRVRIELWVIDGRLHTLHIRIE | 1.23 |
| DDDQKEMERFVREFVHSFMTGDEENIRRLADPNARTYVNGKLRHGMDNFLHLWRQIRIDIQHVKVDDMHLVNGRIYIRVTVHGIFTFDGVHVRDEKDQHWELHVVDGRAKYISIHVH | 1.62 |
| DDDRRSLEDWIKISIESMKTGDEDEFEHLADPNPRMVVGDKHLVGRERAVHVFREWRVKHMTVKDHPIIDGRIEMDTRVTVHFNGRDIELELRIIIHKVNGKWLVEEIIIK | 0.381 |
| DDDTREFEKWEKIWVEYYQTGNFDHLRRLIDPNVRSIVDGKEFHGREAMASMILEETKRADHIEMDLTRHEIIGEKMIIHSRIEIQVGDYHDHYRLELESIKVNGKWIVHRESYR | 0.039 |
| DDEDEEVKLIIEEELHLARTGDFERLLELHDPDVRIIFDGREWHGREALRWLYRHLGIDRIDLHFEDVRVINGRVEMDVTENINGRKIKSRIIARKYDGRWINEQVDIK | 2.28 |
| DDEDEHWETLARHFVDNYLTGDWKRLWEMLDPNARLNVNGKEYHGREVIIRVLRKELEDLGVDVVDVEDIRVYGNKVDFHMTVRVGDKERRLEIDVHIVDGRIRKIIIRID | 2.2 |
| DDEDHELEWMYRIMLRILETGDEDEYKKFADPNTRLLIDFNGRIIDDHGREHVKRSIFEWLEHARIRRKEKKTERHIDGRVILHMRMDVDVNGRRIDRDVLIIIVVINGKFREVDIQYR | 0.931 |
| DDEDKRLETRARLWFEHFFTGDFEAMLWYLDPDTRLHINGREFHGMEHIVHHLEREILHLRVRIHLRRIKIFDGRLIIDIELEVHYGDKTHRTRAEIILIVVNGRIREIEVRES | 1.5 |
| DDEDREAQELLNLYLHAHRTGDEHLLDELVDPHARIIVNGQEIHGRDFLEYLKKFWGITNVNIDIHIDDLKLYDGRIEVETRLILEINGQRYTYSSHEHWHKVNGKWISKRVDFE | 1.05 |
| DDEDRHASKLYHIIVHLEVTGDFEKWRDYADPNVRIVIGDKEFHGRELFMEWLKEIRLERFRIKHIKVIGEKTNSTTSFEVNVNGVRIENDTRIHIHVIDGKVHSVHFEIR | 1.57 |

| Sequence | protease stability score |
| --- | --- |
| DDEDRKKADEMLKALKHGDPDRVRELMDPNAKAVYGDKRIRGRDDFVEDMFRKQREIKIDMKIEEFRVNGNHAVFTVDVIEDKDGRPKRFKARVVITLHNGKIIDIKVEEEH | 1.49 |
| DDEDRKLKHLIELLVHWFLTGDEDALKELADPNTKFDIGDKHYHGMEIVQEIWKRHLEEIRIQHVEIRHVEIQGNKTDITGELHGQIGDKHIRSEVRIHLNIINGRVRSMWFIIH | 2.49 |
| DDEEDHVREMFKLHWDNLRTGDFDKWMNLADPNVRFRYIFNGVDFEYHGRDFVSQILLEIRIDRISIHHVNIFEGHSEIDAHEETTYNGKKTERKVHIELIVFNGRIHELHVEIR | 0.682 |
| DDEEDKAREAFKMLQELVNTGNEELLYQYFDPNYRLDVDGRQIHGREAVVNERRKRFEMWGVEQVRLHIDTWDIIGNKVKLDGHLNFNGVIKKTHIHLLKVNGRWVIESERIE | 1.08 |
| DDEEEDYERAFKIFIDFVKTGDWRLLKELADPNVRNVIGDKEFMGRETFTKWVFDVRAQFDHVEIRIRDFEIQGNKLILYTELHLHQGDKSLTLELRIVILKVNGKWLMHSFRLQ | 1.4 |
| DDEEEEAKEMSEHTLQWFFTGDEEKLYKYIDPDVRVRVLIDGRELVYHGREVFLEFLKRQIEELGIDHVHLRRRHVIDGVLEVHGTINVDGREIELIIFADKYNGRWRLKLIEINVR | 1.69 |
| DDEEEEEEKFRKILEEALETGDERILHHFADPHVQTHFNGQTFHGREEWIKILRKLGVERVHLNIKRVEVYGDKIHIDGELHFDGRTHKVELVALKVDGRWLLHKIVIR | 1.68 |
| DDEEEESEHAVKFWKHAQETGDFDEMRRLADPNVKVEIGDKELHGRKDFTRLLREHKEKLGVERIEVFIHDMHPINGRVTVHVIIEYNGQRQWFHVIFLKINGRWFIESMHIT | 0.378 |
| DDEEEFIRKLFEDFYRAFLTGDWHELFELMDPNTRTEINGVHFHGRHIISEYLVTHIERVDHVSITLTRLDKIGDYLIIDSHLRQDVNGKKIHVRLHMHAHKIDGRWKIHRFEFE | 1.34 |
| DDEEEIFKKAIEDFIRWERTGDWRQLVENLDPNTRVDVNGVYIHGRERIAEWIKHHIERVKNVKHHKHDEKVQGDKLHLDGVIIIDGVRFDVHLIIVVINGQYKHHEVRIR | 1.17 |
| DDEEEILKEFVRIFREVWLTGDFHALLRLADPNVRQELHVNGREIHNHGREAMSDWHHFMRKFFKGMTIIEHTSYLIDGRIHIEGTWSFDGVDFRTHIHQVVIDGRIEHVQLTIH | 0.177 |
| DDEEEINRRIAETFINNVKTGDEHSMREMMDPNTRLIVGDKHNHGWKEVEKFWREWRRHAGVDHIHVDDVRVIGNKVEIDETINQGDKFRDVRISIITINGRITELRIEIR | 1.49 |
| DDEEEVAERAARIVHHLYLTGNPEELLKYFDPDVRWIFNGKTSIGRENVVEMFDDVHRMFGIDVRTSDINSYDIVDGRIEVDSRLHLHINGRKINHHFRIESIKINGRWWLKRIDID | 0.933 |
| DDEEHASRNAYRILKRVVETGDWREFRKMMDPDARVLINGVQLHGREAVHHLLERVDHLHDIELRHIHTQGNKIHIEISVDGLIDGQKTETERRILVTKFNGRWKVEQIEIG | 0.628 |
| DDEEHDARRAVELHNEIERTGDEHEMHRFADPDVRIFIGDKELHGRETWSKYLSHVLERLGINHLHITIEHLHLQGNKMRLHGTIRMKIGDKRYEIHVEVYITKINGRWHLHTIRND | 0.363 |
| DDEEHEARLAVHELREVQRTGDERQLHELIDPDTRFEFPGVTLHGRENMVEWLARIKNLRVESIHERHISIYNGQVDFDMEMHVRDGNKHRTEKWRIIMYKFDGRWSIKSFESR | 0.961 |
| DDEEHEARRVLEELIRVWITGNEELEDRLMDPNVRFVYGEYDLHGMEHFRHLLTVLKDQADHVSDVKLHDLEIQGDKVITRSVVDGVFNGRRFHRSQIIILIKVNGKWRIKSLHIH | 1.33 |
| DDEEHSAENFARHFMENLRTGDEDRLHELADPNMQIILHFDGQHEVRHGWESYEYLVRLFGVKHIHINHFEIFYVNGRVHLRIEGHIHQGDKYREVYIHIDINKVNGRWHVESVELRIH | 0.93 |
| DDEEKEDKDAIKLLVKFWETGDWENISRMMDPHVRLEVGEFTYHGREHFSRLYLEQYERVDHIQFRIHHLEVVGDKMTADTEVHIDINGRHIRLRTHINMIKINGRWRLHSVLIN | 1.48 |
| DDEEKEHLEMLKQFWENSYTGDERTLLHLLDPHARFILEFNGKSLQYHGREEVARFLRWLLEHIRVKDSHIHDIDVIGEKAVVDGRMHGEIDGREVEKETRLFIVVIDGRITKVFIEVR | 1.6 |
| DDEEKETEDFLRLLIEFLLTGDEERLKDLLDPNTRLEYGEFDFVGREHVLEWRHHYRKILGAKHRELRIEHLHVIDGRVNAISRVHLRFDGREYSHETIIIIEKVNGKWLLHSEEIR | 1.33 |
| DDEEKEVKILTEIWWKSVRTGDEEFWDRLADPHTRLEILINGRTHEFHGMDEYNRILHHLRIEDRRTRSINNIDGKAQIDGFLVFRINGRSFETKVEVNISVVNGKVKHHKIIIE | 1.3 |
| DDEEKHAHDILRLLFWVLMTGDEEIIRELFDPNVRVHIGDKEIHGWKELSRHTKEMRHHVRDTDEKDRRSDEDEIRLHGELDGELHFDGKRVKHRMDIHIIAVKIDGRWFFKSLYVR | 0.868 |
| DDEEKLSKDASELWKKSMLTGDEDTLMKLADPHTRLEIRIGDKTDEIHGMEWVAHLLTNLGIDHFILRDEHIQGEKVIIRGEIDINGRTHESIIIVIIINGRLKSVTFIKL | 0.94 |
| DDEEKMFVHLAKLFTDIMTTGDEKFLDELVDPNVRFDVNGRLRVGREELKKAIQDWWREIRVDEILIHEIDVIDGRLRMDGRMRGDIDGQETYLELHIILHVIDGRMTHVEIRHQ | 2.38 |
